Experimental findings from patent US20210230266A1 (SINGAPORE HEALTH SERVICES PTE, published 2021) are described below.

Test [1] addresses T1, Human IL-11 (human, UniProt P20809 22-199).
T1 construct: Recombinant human IL-11 (GenScript Cat. No. Z03108-1) or IL-11 secreted by human cells; the mature form is said to have 178 residues; also called recombinant human IL-11; endogenously produced IL-11
T1 sequence: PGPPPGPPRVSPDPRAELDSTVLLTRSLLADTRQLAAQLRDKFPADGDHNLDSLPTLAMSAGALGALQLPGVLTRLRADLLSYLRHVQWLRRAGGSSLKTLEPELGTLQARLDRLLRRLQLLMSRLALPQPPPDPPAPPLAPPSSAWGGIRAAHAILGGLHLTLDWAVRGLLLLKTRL
As to the kind of experiment: ELISA. Here is the method: (§1) The soluble scFv were produced by recombinant expression in E. coli, and analysed for their ability to bind to human IL-11 and murine IL-11 by ELISA. Briefly, the respective antigen was coated to wells of an ELISA plate, the cell culture supernatant containing the respective scFv was added at a 1:2 dilution, and binding was detected.
Background: An ELISA detects its analyte on a solid surface through an enzyme-linked reagent.

Test [2] deals with T2, Mouse IL-11 (mouse, UniProt P47873 22-199, limits assumed).
T2 construct: also called murine IL-11; recombinant murine IL-11
T2 sequence (looked up): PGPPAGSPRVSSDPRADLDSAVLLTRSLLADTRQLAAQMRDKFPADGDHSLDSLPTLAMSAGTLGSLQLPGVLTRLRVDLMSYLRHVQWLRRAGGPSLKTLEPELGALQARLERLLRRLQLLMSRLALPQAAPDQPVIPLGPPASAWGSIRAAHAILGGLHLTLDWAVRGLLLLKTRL
As to the kind of experiment: ELISA. Here is the method:
as §1

For test [3], the target named is T1, Human IL-11. As to the kind of experiment: cell-based or functional assay.
For test [4], the target named is T1, Human IL-11. As to the kind of experiment: ELISA on coated recombinant human IL-11 (100 ng/well), scFv-Fc. The procedure: The light chain shuffled anti-IL-11 antibodies were analysed to determine the EC50 for binding to human IL-11 by ELISA according to standard methods. Briefly, wells of microtiter plates were coated with recombinant human IL-11 (100 ng/well), scFv-Fc comprising the VH and VL domains of the clones were added in a dilution series and antibody binding was detected using a polyclonal antibody detection system.

B1: YU100-F11 (antibody, V domains shown)
VH: QVQLVESGGGVVQPGRSLRLSCAASGFTFSSYGMHWVRQAPGKGLEWVAVISYDGSNKYYADSVKGRFTISRDNSKNTLYLQMNSLRAEDTAVYYCAKIGATDPLDYWGQGTLVTVSS
VL: QSALTQPASVSGSPGQSITISCTGSSSDVAGYNYVSWYQQHPGKAPKLMIYDVTKRPSGVPDRFSGSKSGNTASLTISGLQAEDEADYYCCSYAGSYTWVFGGGTQLTVLG
notes: light chain-shuffled human anti-IL-11 clone
As usually defined, the EC50 is the concentration needed to bring the measured effect to its halfway point. In the case of B1, the “hIL11 - average signal” value in test [1] is 0.319. Also, the “mIL11 - average signal” value in test [2] came to 0.395. Moreover, in test [3], the “MMP2 production, Experiment 1 (human atrial fibroblasts + TGFB1)” value amounted to 44.5 ng/mL and the “MMP2 production, Experiment 2 (human atrial fibroblasts + TGFB1)” value turned out to be 37.6 ng/mL. Further, the EC50 in test [4] turned out to be 0.027 mg/L.

B2: YU100-B09 (antibody, V domains shown)
VH: QVQLVQSGGGVVQPGRSLRLSCAASGFTFSSYGMHWVRQAPGKGLEWVAVISYDGSNKYYADSVKGRFTISRDNSKNTLYLQMNSLRAEDTAVYYCAKIGATDPLDYWGQGTLVTVSS
As for B2, the “hIL11 - average signal” value in test [1] worked out at 0.21. For the same molecule, the “mIL11 - average signal” value in test [2] stood at 0.293.

B3: YU112-G01 (antibody)
chain: QVQLVESGGGVVQPGRSLRLSCAASGFTFSSYGMHWVRQAPGKGLEWVAVISYDGSNKYYADSVKGRFTISRDNSKNTLYLQMNSLRAEDTAVYYCAKLSGPNGVDYWGQGTLVTVSSGSASAPKLEEGEFSEARVQSALTQPRSVSGSPGQSVTISCTGTISDVGGYNYVSWYQQHPGKAPKLMIYDVTKRPSGVPDRFSGSKSGNTASLTISGLQAEDEAGYYCSSYAGSYTWVFGGGTELTVL
For B3, the “hIL11 - average signal” value in test [1] turned out to be 0.528. Moreover, in test [2], the “mIL11 - average signal” value was 0.794. For the same molecule, in test [3], the “MMP2 production, Experiment 1 (human atrial fibroblasts + TGFB1)” value was 47.6 ng/mL and the “MMP2 production, Experiment 2 (human atrial fibroblasts + TGFB1)” value was found to be 43.8 ng/mL.

B4: YU100-E07 (antibody)
chain: QVQLQESGGGVVQPGRSLRLSCAASGFTFSSYGMHWVRQAPGKGLEWVAVISYDGSNRYYADSVKGRFAISRDNSKNTLYLQMNSLRAEDTAVYYCAKIGATDPLDYWGQGTLVTVSSGSASAPKLEEGEFSEARVQSALTQPRSVSGSPGQSVTISCTGTSSDVGGYDYVSWYQQHPGKAPELMIYDVTKRPSGVADRFSGSKSGNTASLTISGLQAEDEADYYCCSYAGRYTWVFGGGTKLTVL
Regarding B4, the “hIL11 - average signal” value in test [1] is 0.193. Besides, the “mIL11 - average signal” value in test [2] is 0.247. Besides, in test [3], the “MMP2 production, Experiment 1 (human atrial fibroblasts + TGFB1)” value is 52.1 ng/mL and the “MMP2 production, Experiment 2 (human atrial fibroblasts + TGFB1)” value is 46.5 ng/mL. In addition, in test [4], the EC50 stood at 0.023 mg/L.

B5: YU100-F05 (antibody)
chain: QVQLQQSGGGVVQPGRSLRLSCAASGFTFSSYGMHWVRQAPGKGLEWVAVISYDGSNKYYADSVKGRFTISRDNSKNTLYLQMNSLRAEDTAVYYCAKIGATDPLDYWGQGTLVTVSSGSASAPKLEEGEFSEARVQAVLTQPASVSGSPGQSITISCTGTSSDIGGYNYVSWYQQHPGTAPKLMIYDVSSRPSGVSNRFSGSKSGNTASLTISGLQAEDEADYYCCSYAGSYTWVFGGGTKMTVL
In the case of B5, the “hIL11 - average signal” value in test [1] was 0.304. Moreover, the “mIL11 - average signal” value in test [2] worked out at 0.542.

B6: YU100-F06 (antibody)
chain: QVQLVESGGGVVQPGRSLRLSCAASGFTFSSYGMHWVRQAPGKGLEWVAVISYDGSNKYYADSVKGRFTISRDNSKNTLYLQMNSLRAEDTAVYYCARIMGYDYGDYDVVDYWGQGTLVTVSSGSASAPKLEEGEFSEARVQSALTQPRSVSGSPGQSVTISCTGSSSDVGGYNFVSWYRQHPGEAPKLVIFDVNKRPSGVPDRFSGSKSGNTASLTISGLQTEDEADYFCCSYAGGYTWVFGGGTKVTVV
Regarding B6, the “hIL11 - average signal” value in test [1] was 0.16. The “mIL11 - average signal” value in test [2] is 0.481.

B7: YU100-E10 (antibody)
chain: QVQLVQSGGGVVQPGRSLRLSCAASGFTFSSYGMHWVRQAPGKGLEWVAVISYDGSNKYYADSVKGRFTISRDNSKNTLYLQMNSLRAEDTAVYYCAKIGATDPLDYWGQGTLVTVSSGSASAPKLEEGEFSEARVQSALTQPRSVSGSPGQSVTISCTGTSSDVGGYNYVSWYQQHPGKAPKLMIFDVSQRPSGVPDRFSASKSGNTASLTISGLQAEDEADYYCCSYAGSYTWVFGGGTKLTVL
Turning to B7, the “hIL11 - average signal” value in test [1] stood at 0.338. For the same molecule, in test [2], the “mIL11 - average signal” value came to 0.297. In test [3], the “MMP2 production, Experiment 1 (human atrial fibroblasts + TGFB1)” value was 56.1 ng/mL and the “MMP2 production, Experiment 2 (human atrial fibroblasts + TGFB1)” value is 47 ng/mL. Also, the EC50 in test [4] stood at 0.033 mg/L.

B8: YU100-E08 (antibody)
chain: QVQLVQSGGGVVQPGRSLRLSCAASGFTFSSYAMHWVRQAPGKGLEWVAVISYDGSNKYYADSVKGRFTISRDNSKNTLYLQMNSLRAEDTAVYYCARIMGYDYGDYDVVDYWGQGTLVTVSSGSASAPKLEEGEFSEARVQSALTQPRSVSGSPGQSVTISCTGTSSDVGGYNYVSWYQQHPGKAPKLMIYDVSRRPSGVPDRFSGSKSGNTASLTISGLQAEDEADYYCCSYAGNYTWMFGGGTKLTVL
For the molecule B8, the “hIL11 - average signal” value in test [1] came out at 0.214. The “mIL11 - average signal” value in test [2] is 0.251. In test [3], the “MMP2 production, Experiment 1 (human atrial fibroblasts + TGFB1)” value worked out at 48.2 ng/mL and the “MMP2 production, Experiment 2 (human atrial fibroblasts + TGFB1)” value was 59.7 ng/mL. Also, in test [4], the EC50 was determined as 0.032 mg/L.

B9: YU100-G11 (antibody)
chain: QVQLVESGGGVVQPGRSLRLSCAASGFTFSSYGMHWVRQAPGKGLEWVAVISYDGSNKYYADSVKGRFTISRDNSKNTLYLQMNSLRAEDTAVYYCARIMGYDYGDYDVVDYWGQGTLVTVSSGSASAPKLEEGEFSEARVQSALTQPRSVSGSPGQSVTISCTGTSSDVGGYNYVSWYQQHPGKAPKLTLYDVGKRPSGVPDRFSGSKSGNTASLTISGLQAEDEADYYCCSYAGGYTWVFGGGTKVTVV
For the molecule B9, the “hIL11 - average signal” value in test [1] worked out at 0.498. The “mIL11 - average signal” value in test [2] is 0.507.

B10: YU100-G10 (antibody)
chain: QVQLVQSGGGVVQPGRSLRLSCAASGFTFSSYGMHWVRQAPGKGLEWVAVISYDGSNKYYADSVKGRFTISRDNSKNTLYLQMNSLRAEDTAVYYCAKIGATDPLDYWGQGTLVTVSSGSASAPKLEEGEFSEARVQSALTQPASVSGSLGQSITMSCTGTRRDVGGYDFVSWYQQYPGKAPKLIIYDVSNRPSGVSNRFTGSKSGNTASLTISGLQAEDEADYYCCSYAGTYTWVFGGGTKVTVL
Turning to B10, the “hIL11 - average signal” value in test [1] is 0.262. Moreover, the “mIL11 - average signal” value in test [2] came out at 0.404. For the same molecule, in test [3], the “MMP2 production, Experiment 1 (human atrial fibroblasts + TGFB1)” value stood at 54 ng/mL and the “MMP2 production, Experiment 2 (human atrial fibroblasts + TGFB1)” value turned out to be 45.4 ng/mL. In addition, in test [4], the EC50 came to 0.034 mg/L.

B11: YU100-F07 (antibody)
chain: QVQLVESGGGVVQPGRSLRLSCAASGFTFSSYAMHWVRQAPGKGLEWVAVISYDGSNKYYADSVKGRFTISRDNSKNTLYLQMNSLRAEDTAVYYCARIMGYDYGDYDVVDYWGQGTLVTVSSGSASAPKLEEGEFSEARVQSALTQPRSVSVSPGQSVTISCTGTSSDVGGYEYVSWYQQHPGKAPKLMIYDVTKRPSGVPDRFSGSKSGNTASLTISGLQGEDAADYYCCSYAGSYTWVFGGGTTVTVL
As to B11, the “hIL11 - average signal” value in test [1] is 0.172. Moreover, in test [2], the “mIL11 - average signal” value came out at 0.148. In test [3], the “MMP2 production, Experiment 1 (human atrial fibroblasts + TGFB1)” value is 53.1 ng/mL and the “MMP2 production, Experiment 2 (human atrial fibroblasts + TGFB1)” value worked out at 46.6 ng/mL. Further, the EC50 in test [4] is 0.041 mg/L.

B12: YU100-D07 (antibody)
chain: QVQLVESGGGVVQPGRSLRLSCAASGFTFSSYAMHWVRQAPGKGLEWVAVISYDGSNKYYADSVKGRLTISRDNSKNTLYLQMNSLRAEDTAVYYCARIMGYDYGDYDVVDYWGQGTLVTVSSGSASAPKLEEGEFSEARVQSALTQPRSVSGSPGQSVTISCTGTSGDVGTYDYVSWYQQHPGKAPKLMIYDVSKRPSGVPDRFSGSKSGNTASLTISGLQAEDEADYYCNSYAGSYTWVFGGGTKLTVLGQPKTAPSVTLFPPSS
For B12, the “hIL11 - average signal” value in test [1] amounted to 0.246. For the same molecule, the “mIL11 - average signal” value in test [2] was found to be 0.322.

B13: YU112-C09 (antibody)
chain: QVQLVQSGGGVVQPGRSLRLSCAASGFTFGSYGMHWVRQAPGKGLEWVAVISYDGSNKYYADSVKGRFTISRDNSKNTLYLQMNSLRAEDTAVYYCAKGSYYFDYWGQGTLVTVSSGSASAPKLEEGEFSEARVETTLTQSPATLSVSPGERATLSCRASQSFSSSYLAWYQQKPGQAPRLLIYGASRRAPGIPDRFSGSGSGTDFSLTISRLEPEDFAVYYCQQSSTSPTWAFGRGTKVEVK
In the case of B13, the “hIL11 - average signal” value in test [1] turned out to be 0.593. Also, the “mIL11 - average signal” value in test [2] was 0.898.
